From the supplement of paper PMC11246515
± gives the standard deviation of the averaged measurements.

Experiment: total protein half-life in vivo (active degradation + dilution); higher = more stable protein
[1] = E. coli NCM3722 delta-clpP delta-lon delta-hslV, growth: N-lim chemostat, doubling time 6 h
[2] = E. coli NCM3722 delta-hslV, growth: N-lim chemostat, doubling time 6 h
[3] = E. coli NCM3722 delta-lon, growth: N-lim chemostat, doubling time 6 h
[4] = E. coli NCM3722 delta-smpB, growth: N-lim chemostat, doubling time 6 h
[5] = wild type E. coli NCM3722, growth: C-lim chemostat, doubling time 3 h
[6] = wild type E. coli NCM3722, growth: C-lim chemostat, doubling time 6 h
[7] = wild type E. coli NCM3722, growth: C-lim chemostat, doubling time 12 h
[8] = wild type E. coli NCM3722, growth: N-lim chemostat, doubling time 6 h
[9] = wild type E. coli NCM3722, growth: N-lim chemostat, doubling time 12 h
[10] = wild type E. coli NCM3722, growth: P-lim chemostat, doubling time 6 h
[11] = wild type E. coli NCM3722, growth: P-lim chemostat, doubling time 12 h
[12] = E. coli NCM3722 delta-clpP, growth: N-lim chemostat, doubling time 6 h

Sequence	total protein half-life in vivo [1] [h]	total protein half-life in vivo [2] [h]	total protein half-life in vivo [3] [h]	total protein half-life in vivo [4] [h]	total protein half-life in vivo [5] [h]	total protein half-life in vivo [6] [h]	total protein half-life in vivo [7] [h]	total protein half-life in vivo [8] [h]	total protein half-life in vivo [9] [h]	total protein half-life in vivo [10] [h]	total protein half-life in vivo [11] [h]	total protein half-life in vivo [12] [h]
MVSSFTSAPRSGFYYFAQGWKLVSQPGIRRFVILPLLVNILLMGGAFWWLFTQLDVWIPTLMSYVPDWLQWLSYLLWPLAVISVLLVFGYFFSTIANWIAAPFNGLLAEQLEARLTGATPPDTGIFGIMKDVPRIMKREWQKFAWYLPRAIVLLILYFIPGIGQTVAPVLWFLFSAWMLAIQYCDYPFDNHKVPFKEMRTALRTRKITNMQFGALTSLFTMIPLLNLFIMPVAVCGATAMWVDCYRDKHAMWR [P0A6J3]	6.46	5.84	6.33 ± 0.76	6.144 ± 0.028	3.19 ± 0.53	5.49 ± 0.6	12.3	6.67	13.7 ± 1.9	7.18	13.2 ± 0.26	
MRTVLNILNFVLGGFATTLGWLLATLVSIVLIFTLPLTRSCWEITKLSLVPYGNEAIHVDELNPAGKNVLLNTGGTVLNIFWLIFFGWWLCLMHIATGIAQCISIIGIPVGIANFKIAAIALWPVGRRVVSVETAQAAREANARRRFE [P0AB12]	6.35 ± 0.66	5.92 ± 0.069	5.93 ± 0.27	6.1 ± 0.31	2.89 ± 0.29	6.33 ± 0.089	12.5 ± 1	6.72 ± 1.3	12.3 ± 3.2	5.98 ± 0.26	12 ± 0.12	6.3 ± 0.72
MTTKKADYIWFNGEMVRWEDAKVHVMSHALHYGTSVFEGIRCYDSHKGPVVFRHREHMQRLHDSAKIYRFPVSQSIDELMEACRDVIRKNNLTSAYIRPLIFVGDVGMGVNPPAGYSTDVIIAAFPWGAYLGAEALEQGIDAMVSSWNRAAPNTIPTAAKAGGNYLSSLLVGSEARRHGYQEGIALDVNGYISEGAGENLFEVKDGVLFTPPFTSSALPGITRDAIIKLAKELGIEVREQVLSRESLYLADEVFMSGTAAEITPVRSVDGIQVGEGRCGPVTKRIQQAFFGLFTGETEDKWGWLDQVNQ [P0AB80]	4.699 ± 0.033	3.48 ± 0.06	4.94 ± 1.1	3.75 ± 0.1	3.24 ± 0.089	5.63 ± 0.072	10.9 ± 0.13	3.49 ± 0.13	5.36 ± 0.066	5.65 ± 0.27	10.9 ± 0.95	4.25 ± 1.3
MRTQWPSPAKLNLFLYITGQRADGYHTLQTLFQFLDYGDTISIELRDDGDIRLLTPVEGVEHEDNLIVRAARLLMKTAADSGRLPTGSGANISIDKRLPMGGGLGGGSSNAATVLVALNHLWQCGLSMDELAEMGLTLGADVPVFVRGHAAFAEGVGEILTPVDPPEKWYLVAHPGVSIPTPVIFKDPELPRNTPKRSIETLLKCEFSNDCEVIARKRFREVDAVLSWLLEYAPSRLTGTGACVFAEFDTESEARQVLEQAPEWLNGFVAKGANLSPLHRAML		4.05 ± 0.64	4.25 ± 0.41	4.04 ± 0.42	2.95 ± 0.33		10.5 ± 0.63	4.43 ± 0.23	6.789 ± 0.062	5.31 ± 0.33	10.47 ± 0.049	4.11 ± 0.64
MLILISPAKTLDYQSPLTTTRYTLPELLDNSQQLIHEARKLTPPQISTLMRISDKLAGINAARFHDWQPDFTPANARQAILAFKGDVYTGLQAETFSEDDFDFAQQHLRMLSGLYGVLRPLDLMQPYRLEMGIRLENARGKDLYQFWGDIITNKLNEALAAQGDNVVINLASDEYFKSVKPKKLNAEIIKPVFLDEKNGKFKIISFYAKKARGLMSRFIIENRLTKPEQLTGFNSEGYFFDEDSSSNGELVFKRYEQR [P0A8I3]	2.9 ± 0.42	2.665 ± 0.025	3.07 ± 0.18	2.63 ± 0.37	2.66 ± 0.069	3.57 ± 0.5	6.32 ± 0.39	2.53 ± 0.26	3.4738 ± 0.0021	3.39 ± 0.057	6.11 ± 0.75	2.57 ± 0.31
MTGQSSSQAATPIQWWKPALFFLVVIAGLWYVKWEPYYGKAFTAAETHSIGKSILAQADANPWQAALDYAMIYFLAVWKAAVLGVILGSLIQVLIPRDWLLRTLGQSRFRGTLLGTLFSLPGMMCTCCAAPVAAGMRRQQVSMGGALAFWMGNPVLNPATLVFMGFVLGWGFAAIRLVAGLVMVLLIATLVQKWVRETPQTQAPVEIDIPEAQGGFFSRWGRALWTLFWSTIPVYILAVLVLGAARVWLFPHADGAVDNSLMWVVAMAVAGCLFVIPTAAEIPIVQTMMLAGMGTAPALALLMTLPAVSLPSLIMLRKAFPAKALWLTGAMVAVSGVIVGGLALLF				4.43 ± 0.43					5.72			
MSRNTEATDDVKTWTGGPLNYKEGFFTQLATDELAKGINEEVVRAISAKRNEPEWMLEFRLNAYRAWLEMEEPHWLKAHYDKLNYQDYSYYSAPSCGNCDDTCASEPGAVQQTGANAFLSKEVEAAFEQLGVPVREGKEVAVDAIFDSVSVATTYREKLAEQGIIFCSFGEAIHDHPELVRKYLGTVVPGNDNFFAALNAAVASDGTFIYVPKGVRCPMELSTYFRINAEKTGQFERTILVADEDSYVSYIEGCSAPVRDSYQLHAAVVEVIIHKNAEVKYSTVQNWFPGDNNTGGILNFVTKRALCEGENSKMSWTQSETGSAITWKYPSCILRGDNSIGEFYSVALTSGHQQADTGTKMIHIGKNTKSTIISKGISAGHSQNSYRGLVKIMPTATNARNFTQCDSMLIGANCGAHTFPYVECRNNSAQLEHEATTSRIGEDQLFYCLQRGISEEDAISMIVNGFCKDVFSELPLEFAVEAQKLLAISLEHSVG	4.92 ± 0.3	1.46 ± 0.085	1.98 ± 0.2	1.58 ± 0.085	1.85 ± 0.4	3.12 ± 0.02	4.99 ± 0.85	1.51 ± 0.56	2.29	3.223 ± 0.00026	5.113 ± 0.048	2.89 ± 0.11
MNALLSNPFKERLRKGEVQIGLWLSSTTAYMAEIAATSGYDWLLIDGEHAPNTIQDLYHQLQAVAPYASQPVIRPVEGSKPLIKQVLDIGAQTLLIPMVDTAEQARQVVSATRYPPYGERGVGASVARAARWGRIENYMAQVNDSLCLLVQVESKTALDNLDEILDVEGIDGVFIGPADLSASLGYPDNAGHPEVQRIIETSIRRIRAAGKAAGFLAVAPDMAQQCLAWGANFVAVGVDTMLYSDALDQRLAMFKSGKNGPRIKGSY				2.17	2.74	4.08	6.62 ± 0.94		3.25			2.69 ± 0.27
MDKQSLHETAKRLALELPFVELCWPFGPEFDVFKIGGKIFMLSSELRGVPFINLKSDPQKSLLNQQIYPSIKPGYHMNKKHWISVYPGEEISEALLRDLINDSWNLVVDGLAKRDQKRVRPG [P0AAT2]	5.54 ± 0.35	5.97 ± 0.5	6.9 ± 0.29	5.28 ± 0.71	3.35 ± 0.7	5.17 ± 0.11	11.2 ± 0.26	4.78 ± 0.46	10.1 ± 2.1	4.72 ± 1.1	10.6 ± 0.46	6.23
MGSGWHEWPLMIFTVFGQCVAGGFIVLALALLKGDLRAEAQQRVIACMFGLWVLMGIGFIASMLHLGSPMRAFNSLNRVGASALSNEIASGSIFFAVGGIGWLLAMLKKLSPALRTLWLIVTMVLGVIFVWMMVRVYNSIDTVPTWYSIWTPMGFFLTMFMGGPLLGYLLLSLAGVDGWAMRLLPAISVLALVVSGVVSVMQGAELATIHSSVQQAAALVPDYGALMSWRIVLLAVALCLWIAPQLKGYQPAVPLLSVSFILLLAGELIGRGVFYGLHMTVGMAVAS						5.22					10.9	
MKTAKEYSDTAKREVSVDVDALLAAINEISESEVHRSQNDSEHVSVDGREYHTWRELADAFELDIHDFSVSEVNR	4.23 ± 0.73		0.678	0.551			1.38		1.03			1.58
MSIEIANIKKSFGRTQVLNDISLDIPSGQMVALLGPSGSGKTTLLRIIAGLEHQTSGHIRFHGTDVSRLHARDRKVGFVFQHYALFRHMTVFDNIAFGLTVLPRRERPNAAAIKAKVTKLLEMVQLAHLADRYPAQLSGGQKQRVALARALAVEPQILLLDEPFGALDAQVRKELRRWLRQLHEELKFTSVFVTHDQEEATEVADRVVVMSQGNIEQADAPDQVWREPATRFVLEFMGEVNRLQGTIRGGQFHVGAHRWPLGYTPAYQGPVDLFLRPWEVDISRRTSLDSPLPVQVLEASPKGHYTQLVVQPLGWYNEPLTVVMHGDDAPQRGERLFVGLQHARLYNGDERIETRDEELALAQSA	6.63 ± 1.7	2.09 ± 0.0062	2.01 ± 0.088	2.01 ± 0.032	2.4 ± 1.4	3.58 ± 2.8	2.68 ± 0.037	2.08 ± 0.11	2.85 ± 0.09	2.65 ± 0.42	4.77 ± 0.37	5.04 ± 1.5
MSNRKYFGTDGIRGRVGDAPITPDFVLKLGWAAGKVLARHGSRKIIIGKDTRISGYMLESALEAGLAAAGLSALFTGPMPTPAVAYLTRTFRAEAGIVISASHNPFYDNGIKFFSIDGTKLPDAVEEAIEAEMEKEISCVDSAELGKASRIVDAAGRYIEFCKATFPNELSLSELKIVVDCANGATYHIAPNVLRELGANVIAIGCEPNGVNINAEVGATDVRALQARVLAEKADLGIAFDGDGDRVIMVDHEGNKVDGDQIMYIIAREGLRQGQLRGGAVGTLMSNMGLELALKQLGIPFARAKVGDRYVLEKMQEKGWRIGAENSGHVILLDKTTTGDGIVAGLQVLAAMARNHMSLHDLCSGMKMFPQILVNVRYTAGSGDPLEHESVKAVTAEVEAALGNRGRVLLRKSGTEPLIRVMVEGEDEAQVTEFAHRIADAVKAV	6.02 ± 0.36	5.92 ± 0.21	6.65 ± 0.13	5.71 ± 0.24	3.24 ± 0.19	6.27 ± 0.035	12.62 ± 0.093	6.08 ± 0.13	11.8 ± 0.54	6.24 ± 0.16	13.8 ± 0.27	6.03 ± 0.15
MSHLKDPTTQYYTGEYPKQKQPTPGIQAKMTPVPDCGEKTYVGSGRLKDRKALVTGGDSGIGRAAAIAYAREGADVAISYLPVEEEDAQDVKKIIEECGRKAVLLPGDLSDEKFARSLVHEAHKALGGLDIMALVAGKQVAIPDIADLTSEQFQKTFAINVFALFWLTQEAIPLLPKGASIITTSSIQAYQPSPHLLDYAATKAAILNYSRGLAKQVAEKGIRVNIVAPGPIWTALQISGGQTQDKIPQFGQQTPMKRAGQPAELAPVYVYLASQESSYVTAEVHGVCGGEHLG [P0AG84]	5.31 ± 0.2	5.82 ± 0.34	5.57 ± 0.34	5.06 ± 0.66	3.13 ± 0.54	6.3 ± 0.59	11.4 ± 2.8	5.32 ± 0.27	9.18 ± 0.35	5.5 ± 0.43	10.73 ± 0.025	5.27 ± 0.099
MVINCAFIGFGKSTTRYHLPYVLNRKDSWHVAHIFRRHAKPEEQAPIYSHIHFTSDLDEVLNDPDVKLVVVCTHADSHFEYAKRALEAGKNVLVEKPFTPTLAQAKELFALAKSKGLTVTPYQNRRFDSCFLTAKKAIESGKLGEIVEVESHFDYYRPVAETKPGLPQDGAFYGLGVHTMDQIISLFGRPDHVAYDIRSLRNKANPDDTFEAQLFYGDLKAIVKTSHLVKIDYPKFIVHGKKGSFIKYGIDQQETSLKANIMPGEPGFAADDSVGVLEYVNDEGVTVREEMKPEMGDYGRVYDALYQTITHGAPNYVKESEVLTNLEILERGFEQASPSTVTLAK	5.85 ± 0.38	5.38 ± 0.92	4.78 ± 0.095	4.91 ± 0.26	3.04 ± 0.12	5.58 ± 0.54	11.6 ± 0.32	4.75 ± 0.06	8.63 ± 0.17	5.842 ± 0.057	12.3 ± 1.1	4.79 ± 0.2
MTETIKVSESLELHAVAENHVKPLYQLICKNKTWLQQSLNWPQFVQSEEDTRKTVQGNVMLHQRGYAKMFMIFKEDELIGVISFNRIEPLNKTAEIGYWLDESHQGQGIISQALQALIHHYAQSGELRRFVIKCRVDNPQSNQVALRNGFILEGCLKQAEFLNDAYDDVNLYARIIDSQ	4.21 ± 0.68	3.75 ± 0.27	3.31 ± 0.19	4.22 ± 0.22	3.18 ± 0.37	5.79 ± 0.19	8.82 ± 2.3	4.47	6.48 ± 0.098	5.61 ± 0.16	13.7 ± 0.43	4.2 ± 0.35
